# Reference: the supplement of paper PMC10567573
# B1: PRPH (parent)
# chain: DEIEFLKKLHEEELRDLQVSVESQ
# Variants of: B1
# Assay: protein stability index of a GFP-peptide fusion (GPS, HEK-293T) (PSI 1-6); higher = more stable
# Settings: c terminus: a fixed tail appended
# 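Note: lentivirally expressed fusions sorted by FACS into six bins by GFP to DsRed ratio, PSI derived from sequencing read proportions per bin multiplied by bin number.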
row,Variant,protein stability index
1,DEIEFLKKLHEEELRDLNVSVESQ,5.11
2,DEIEFLKKLHEEELRDLLVSVESQ,3.89
3,DEIEFLKKLHEEELRDLYVSVESQ,4.21
4,DEIEFLKKLHEEELRDLDVSVESQ,5.27
5,DEIEFLKKLHEEELRDLFVSVESQ,3.36
6,DEIEFLKKLHEEELRDLHVSVESQ,4.69
7,DEIEFLKKLHEEELRDLWVSVESQ,3.39
8,DEIEFLKKLHEEELRDLVVSVESQ,4.38
9,DEIEFLKKLHEEELRDLEVSVESQ,4.81
10,DEIEFLKKLHEEELRDLGVSVESQ,5
11,DEIEFLKKLHEEELRDLSVSVESQ,5.08
12,DEIEFLKKLHEEELRDLAVSVESQ,4.46
13,DEIEFLKKLHEEELRDLIVSVESQ,4.4
14,DEIEFLKKLHEEELRDLCVSVESQ,4.86
15,DEIEFLKKLHEEELRDLRVSVESQ,4.62
16,DEIEFLKKLHEEELRDLTVSVESQ,5.36
17,DEIEFLKKLHEEELRDLKVSVESQ,4.63
18,DEIEFLKKLHEEELRDLPVSVESQ,5.3
19,DEIEFLKKLHEEELRDLMVSVESQ,4.37
20,DEIEFLKKLHEEELRDLQVSLESQ,4.71
21,DEIEFLKKLHEEELRDLQVSNESQ,5.29
22,DEIEFLKKLHEEELRDLQVSHESQ,5.09
23,DEIEFLKKLHEEELRDLQVSWESQ,4.36
24,DEIEFLKKLHEEELRDLQVSSESQ,4.75

row,Variant,protein stability index
1,DEIEFLKKLHEEELRDLQVSEESQ,5.81
2,DEIEFLKKLHEEELRDLQVSTESQ,4.96
3,DEIEFLKKLHEEELRDLQVSIESQ,4.13
4,DEIEFLKKLHEEELRDLQVSPESQ,4.95
5,DEIEFLKKLHEEELRDLQVSDESQ,5.43
6,DEIEFLKKLHEEELRDLQVSMESQ,4.45
7,DEIEFLKKLHEEELRDLQVSYESQ,4.07
8,DEIEFLKKLHEEELRDLQVSCESQ,4.98
9,DEIEFLKKLHEEELRDLQVSAESQ,5.45
10,DEIEFLKKLHEEELRDLQVSKESQ,5.06
11,DEIEFLKKLHEEELRDLQVSRESQ,4.39
12,DEIEFLKKLHEEELRDLQVSGESQ,4.92
13,DEIEFLKKLHEEELRDLQVSFESQ,4.43
14,DEIEFLKKLHEEELRDLQVSQESQ,4.39
15,DEIEFLKKLHEEELRWLQVSVESQ,3.15
16,DEIEFLKKLHEEELRKLQVSVESQ,4.94
17,DEIEFLKKLHEEELRALQVSVESQ,4.6
18,DEIEFLKKLHEEELRHLQVSVESQ,4.67
19,DEIEFLKKLHEEELRGLQVSVESQ,4.95
20,DEIEFLKKLHEEELRMLQVSVESQ,3.9
21,DEIEFLKKLHEEELRILQVSVESQ,3.82
22,DEIEFLKKLHEEELRNLQVSVESQ,4.2
23,DEIEFLKKLHEEELRTLQVSVESQ,4.72
24,DEIEFLKKLHEEELRPLQVSVESQ,4.59

row,Variant,protein stability index
1,DEIEFLKKLHEEELRCLQVSVESQ,4.28
2,DEIEFLKKLHEEELRELQVSVESQ,4.31
3,DEIEFLKKLHEEELRVLQVSVESQ,4.34
4,DEIEFLKKLHEEELRRLQVSVESQ,3.96
5,DEIEFLKKLHEEELRSLQVSVESQ,5.14
6,DEIEFLKKLHEEELRFLQVSVESQ,3.1
7,DEIEFLKKLHEEELRYLQVSVESQ,3.49
8,DEIEFLKKLHEEELRQLQVSVESQ,4.35
9,DEIEFLKKLHEEELRLLQVSVESQ,2.97
10,DEIEFLKKLHEEELRDLQHSVESQ,5.27
11,DEIEFLKKLHEEELRDLQESVESQ,5
12,DEIEFLKKLHEEELRDLQTSVESQ,5.19
13,DEIEFLKKLHEEELRDLQGSVESQ,5.15
14,DEIEFLKKLHEEELRDLQLSVESQ,4.85
15,DEIEFLKKLHEEELRDLQDSVESQ,5.58
16,DEIEFLKKLHEEELRDLQQSVESQ,5.01
17,DEIEFLKKLHEEELRDLQPSVESQ,4.93
18,DEIEFLKKLHEEELRDLQASVESQ,5.23
19,DEIEFLKKLHEEELRDLQISVESQ,5.18
20,DEIEFLKKLHEEELRDLQRSVESQ,5.06
21,DEIEFLKKLHEEELRDLQYSVESQ,4.56
22,DEIEFLKKLHEEELRDLQFSVESQ,4.39
23,DEIEFLKKLHEEELRDLQSSVESQ,4.6
24,DEIEFLKKLHEEELRDLQCSVESQ,5.23

row,Variant,protein stability index
1,DEIEFLKKLHEEELRDLQNSVESQ,4.87
2,DEIEFLKKLHEEELRDLQWSVESQ,5.12
3,DEIEFLKKLHEEELRDLQKSVESQ,5
4,DEIEFLKKLHEEELRDLQMSVESQ,4.76
5,DEIEFLKKLHEEELWDLQVSVESQ,3.91
6,DEIEFLKKLHEEELIDLQVSVESQ,4.79
7,DEIEFLKKLHEEELGDLQVSVESQ,4.28
8,DEIEFLKKLHEEELNDLQVSVESQ,4.91
9,DEIEFLKKLHEEELQDLQVSVESQ,4.66
10,DEIEFLKKLHEEELFDLQVSVESQ,4.15
11,DEIEFLKKLHEEELKDLQVSVESQ,4.59
12,DEIEFLKKLHEEELLDLQVSVESQ,4.38
13,DEIEFLKKLHEEELSDLQVSVESQ,4.8
14,DEIEFLKKLHEEELVDLQVSVESQ,4.94
15,DEIEFLKKLHEEELTDLQVSVESQ,4.51
16,DEIEFLKKLHEEELCDLQVSVESQ,4.53
17,DEIEFLKKLHEEELMDLQVSVESQ,4.58
18,DEIEFLKKLHEEELEDLQVSVESQ,4.83
19,DEIEFLKKLHEEELHDLQVSVESQ,4.39
20,DEIEFLKKLHEEELADLQVSVESQ,5.18
21,DEIEFLKKLHEEELDDLQVSVESQ,5.45
22,DEIEFLKKLHEEELYDLQVSVESQ,4.58
23,DEIEFLKKLHEEELPDLQVSVESQ,4.98
24,DEIEFLKKLHEEELRDLQVYVESQ,4.45

row,Variant,protein stability index
1,DEIEFLKKLHEEELRDLQVDVESQ,4.54
2,DEIEFLKKLHEEELRDLQVAVESQ,4.78
3,DEIEFLKKLHEEELRDLQVVVESQ,4.88
4,DEIEFLKKLHEEELRDLQVMVESQ,4.81
5,DEIEFLKKLHEEELRDLQVRVESQ,5.1
6,DEIEFLKKLHEEELRDLQVIVESQ,4.27
7,DEIEFLKKLHEEELRDLQVNVESQ,4.83
8,DEIEFLKKLHEEELRDLQVHVESQ,4.91
9,DEIEFLKKLHEEELRDLQVPVESQ,4.96
10,DEIEFLKKLHEEELRDLQVKVESQ,4.75
11,DEIEFLKKLHEEELRDLQVGVESQ,4.29
12,DEIEFLKKLHEEELRDLQVQVESQ,4.86
13,DEIEFLKKLHEEELRDLQVWVESQ,4.45
14,DEIEFLKKLHEEELRDLQVCVESQ,5.06
15,DEIEFLKKLHEEELRDLQVLVESQ,4.2
16,DEIEFLKKLHEEELRDLQVEVESQ,5.75
17,DEIEFLKKLHEEELRDLQVTVESQ,4.87
18,DEIEFLKKLHEEELRDLQVFVESQ,3.97
19,DEIEFLKKLHEENLRDLQVSVESQ,4.97
20,DEIEFLKKLHEERLRDLQVSVESQ,4.42
21,DEIEFLKKLHEEYLRDLQVSVESQ,3.95
22,DEIEFLKKLHEEMLRDLQVSVESQ,3.46
23,DEIEFLKKLHEEALRDLQVSVESQ,3.9
24,DEIEFLKKLHEEDLRDLQVSVESQ,4.97

row,Variant,protein stability index
1,DEIEFLKKLHEEFLRDLQVSVESQ,2.85
2,DEIEFLKKLHEEVLRDLQVSVESQ,3.73
3,DEIEFLKKLHEETLRDLQVSVESQ,4.05
4,DEIEFLKKLHEEILRDLQVSVESQ,2.74
5,DEIEFLKKLHEECLRDLQVSVESQ,3.59
6,DEIEFLKKLHEEGLRDLQVSVESQ,4.83
7,DEIEFLKKLHEEPLRDLQVSVESQ,5.05
8,DEIEFLKKLHEEHLRDLQVSVESQ,4.45
9,DEIEFLKKLHEEQLRDLQVSVESQ,4.65
10,DEIEFLKKLHEEKLRDLQVSVESQ,5.25
11,DEIEFLKKLHEESLRDLQVSVESQ,4.16
12,DEIEFLKKLHEELLRDLQVSVESQ,3.27
13,DEIEFLKKLHELELRDLQVSVESQ,4.04
14,DEIEFLKKLHEQELRDLQVSVESQ,4.53
15,DEIEFLKKLHEPELRDLQVSVESQ,4.77
16,DEIEFLKKLHEHELRDLQVSVESQ,4.64
17,DEIEFLKKLHEIELRDLQVSVESQ,4.05
18,DEIEFLKKLHEMELRDLQVSVESQ,4.33
19,DEIEFLKKLHEWELRDLQVSVESQ,4.12
20,DEIEFLKKLHESELRDLQVSVESQ,4.67
21,DEIEFLKKLHEYELRDLQVSVESQ,4.07
22,DEIEFLKKLHEGELRDLQVSVESQ,4.19
23,DEIEFLKKLHEKELRDLQVSVESQ,4.82
24,DEIEFLKKLHENELRDLQVSVESQ,4.5

row,Variant,protein stability index
1,DEIEFLKKLHERELRDLQVSVESQ,4.8
2,DEIEFLKKLHETELRDLQVSVESQ,4.43
3,DEIEFLKKLHEVELRDLQVSVESQ,4.1
4,DEIEFLKKLHEEELRDLQVSVASQ,4.47
5,DEIEFLKKLHEEELRDLQVSVCSQ,4.93
6,DEIEFLKKLHEEELRDLQVSVDSQ,4.99
7,DEIEFLKKLHEEELRDFQVSVESQ,4.69
8,DEIEFLKKLHEEELRDNQVSVESQ,4.45
9,DEIEFLKKLHEEELRDYQVSVESQ,3.39
10,DEIEFLKKLHEEELRDKQVSVESQ,4.81
11,DEIEFLKKLHEEELRDTQVSVESQ,5.06
12,DEIEFLKKLHEEELRDCQVSVESQ,4.92
13,DEIEFLKKLHEEELRDAQVSVESQ,5.15
14,DEIEFLKKLHEEELRDEQVSVESQ,4.98
15,DEIEFLKKLHEEELRDSQVSVESQ,4.9
16,DEIEFLKKLHEEELRDQQVSVESQ,5.15
17,DEIEFLKKLHEEELRDGQVSVESQ,5.21
18,DEIEFLKKLHEEELRDRQVSVESQ,5.06
19,DEIEFLKKLHEEELRDDQVSVESQ,5.25
20,DEIEFLKKLHEEELRDVQVSVESQ,5.02
21,DEIEFLKKLHEEELRDPQVSVESQ,5.16
22,DEIEFLKKLHEEELRDMQVSVESQ,4.97
23,DEIEFLKKLHEEELRDWQVSVESQ,4.8
24,DEIEFLKKLHEEELRDHQVSVESQ,4.6

row,Variant,protein stability index
1,DEIEFLKKLHEEELRDIQVSVESQ,4.97
2,DEIEFLKKLHEEETRDLQVSVESQ,5.78
3,DEIEFLKKLHEEEWRDLQVSVESQ,4.38
4,DEIEFLKKLHEEENRDLQVSVESQ,5.08
5,DEIEFLKKLHEEEQRDLQVSVESQ,4.84
6,DEIEFLKKLHEEESRDLQVSVESQ,5.18
7,DEIEFLKKLHEEEDRDLQVSVESQ,5.57
8,DEIEFLKKLHEEEMRDLQVSVESQ,5.02
9,DEIEFLKKLHEEEARDLQVSVESQ,4.95
10,DEIEFLKKLHEEEPRDLQVSVESQ,4.71
11,DEIEFLKKLHEEEKRDLQVSVESQ,4.92
12,DEIEFLKKLHEEERRDLQVSVESQ,5.22
13,DEIEFLKKLHEEEERDLQVSVESQ,4.85
14,DEIEFLKKLHEEEVRDLQVSVESQ,5.27
15,DEIEFLKKLHEEECRDLQVSVESQ,5.18
16,DEIEFLKKLHEEEHRDLQVSVESQ,5.31
17,DEIEFLKKLHEEEYRDLQVSVESQ,4.6
18,DEIEFLKKLHEEEIRDLQVSVESQ,4.66
19,DEIEFLKKLHEEEFRDLQVSVESQ,4.24
20,DEIEFLKKLHEEEGRDLQVSVESQ,5.14
